Where two headings read alike, the source gives them in different places.

Data set [1] has as its target T7 RNA polymerase (Escherichia phage T7, UniProt P00573). The following applies: for misincorporation: 5IyTP +; for 5Iyp (number of nucleotides in transcription product): transcribed with 0.25 mM 5IyTP (+), theoretical number in parentheses. As to the method: The reaction composition of T7 transcription may be the same as described in Ohtsuki et al., 2001. Details are as follows: 40 mM Tris-HCl (pH 8.0), 5 mM DTT, 24 mM MgCl2, 2 mM spermidine, 0.01% TritonX-100, 10 mM GMP, 1 mM NTPs, 0-0.25 mM 5IyTP, 0.2 μl/μl template DNA, and 2.5 U/μl T7 RNA polymerase (TaKaRa). After enzymatic reaction at 37° C. for 6 hours, each reaction product was purified by electrophoresis on an 8% polyacrylamide-7M urea gel.
When T7 transcription reaction is performed in the presence of [α-^32P]ATP or [α-^32P]GTP, a nucleoside 3′-phosphate (Np) 5′-terminal to A or G is labeled with ^32P. Each gel-purified RNA was completely digested into Np by RNase T2 (Sigma). If 5Iy is introduced at residue 84 or 92, the nucleoside 3′-phosphate of 5Iy (5IyTp) is labeled with ^32P via [α-^32P]GTP, while if 5Iy is introduced at residue 87, 5IyTp is labeled via [α-^32P]ATP (FIG. 5, FIG. 6-b). For base composition analysis of 5Iy-containing RNAs, each of the completely digested products was separated by 2D-TLC and determined for each nucleotide content.
More specifically, to completely digest RNA, 0.75 μl RNase T2 solution (5 units/μl; 100 mM NaOAc pH 4.5, 10% glycerol) was added to 4.25 μl aqueous solution containing the labeled RNA and a 0.25 OD E. coli-derived tRNA mixture (Sigma), followed by overnight enzymatic reaction at 37° C. A part of the reaction solution was spotted onto a 10 cm×10 cm TLC plate (Funacell SF; Funakoshi Co., Ltd., Japan) and developed in two dimensions. Developing solutions for the first and second dimensions are isobutyric acid/ammonia/water (66:1:33 by volume) and 2-propanol/hydrochloric acid/water (70:15:15 by volume), respectively. The developed spots were detected and quantified using a bioimaging analyzer (BAS2500, Fuji Photo Film Co., Ltd., Japan).
Each value was calculated from the following equation. The theoretical numbers of nucleotides are in parentheses.

The target of data set [2] is T1, Raf-1 RBD/Ras interaction (Homo sapiens, UniProt P04049).
T1 construct: GST (N); made in house; host or cells: E. coli
As to the kind of experiment: Inhibition of Raf-1 RBD/Ras interaction. The note with it: compared with aptamer from N60 pool. The class given is biochemical. The source says: In this reference example, with the aim of designing a novel RNA molecule selectively regulating Ras/Raf-1 interaction in cellular signal transduction, RNA aptamers specifically binding to Raf-1 RBD were isolated by in vitro selection techniques. An RNA aptamer obtained from a pool containing random sequences of 60 nucleotides (N60) inhibited Raf-1 RBD/Ras interaction. […] In response to this, the selection technique was partially modified and used for selection on a pool containing newly designed RNA random sequences of 45 nucleotides (N45). The RT-PCR products were each subcloned into TA cloning vector pCR®II-TOPO using a TOPO TA Cloning Kit Dual (Invitrogen), and nucleotide sequences were determined for individual clones using a dRhodamine Terminator Cycle Sequencing Ready Reaction Kit (Applied Biosystems).

Data set [3] deals with T2, Raf-1 RBD (Homo sapiens, UniProt P04049).
T2 construct: human Raf-1 RBD (amino acid residues 51-131); GST (N); made in house; host or cells: E. coli
Put plainly: Binding efficiency to Raf-1 RBD by filter binding method. The following applies: Raf-1 RBD/RNA=300:5 nM; triplicate average, standard deviation in parentheses. As to the method:
In this example, to examine changes in binding activity to Raf-1 RBD, each RNA site-selectively introduced with 5Iy was measured for binding efficiency by a filter binding method (Table 2). […] This means that the inventive method for site-selective introduction of 5Iy is advantageous.
(§1) The binding efficiency to Raf-1 RBD was measured for each RNA by a filter binding method (Raf-1 RBD/RNA=300:5 nM). Standard deviations are in parentheses. ^a RNA 9A transcribed from s-free template DNA in the presence of 0.4 mM 5IUTP. ^b RNA 9A transcribed from s-free template DNA in the presence of 0.25 mM 5IyTP.
Each RNA whose 5′-terminus was ^32P -labeled was warmed in Buffer A at 75° C. for 3 minutes and then allowed to stand at room temperature for 10 minutes or longer to form the secondary structure of RNA. On the other hand, to prepare Raf-1 RBD, human Raf-1 RBD (amino acid residues 51-131) was expressed as a GST (glutathione transferase)-fusion protein in E. coli cells and purified from the supernatant of crushed cells by column chromatography. Rat RGL RBD (amino acid residues 632-734) [Koyama et al., 1996] and human B-Raf RBD (amino acid residues 149-226) were also expressed as GST-fusion proteins in E. coli cells and purified in the same manner.

Data set [4] concerns the target B-Raf RBD/Ras interaction (Homo sapiens, UniProt P15056).
In data set [5] the test system is Ras-induced Raf-1 activation. As to the kind of experiment: Ras-induced Raf-1 activation in a cell-free system. The class given is biochemical. The following applies: membrane fraction of Sf9 cells expressing Ras and Raf-1, cytoplasmic fraction of HEK293 cells.
Data set [6] concerns the target T3, Raf-1 GST-RBD (Homo sapiens, UniProt P04049).
T3 construct: human Raf-1 RBD (amino acid residues 51-131); GST (N); made in house; host or cells: E. coli
As to the kind of experiment: Gel shift assay of binding to GST-RBD. The note with it: 5% non-denaturing polyacrylamide gel. As to the method: The product (XL) obtained by crosslinking reaction an equal concentration (0.1 μM) mixture of 9A(5Iy87) and Raf-1 RBD was purified from a gel and analyzed for binding between XL and GSTRBD by gel shift assay. As a control of RNA 9A dimer, RNA 9A molecules were also linked in tandem to newly prepare RNA 9A×2 (200 nucleotides in total length), followed by gel shift assay. RNA 9A×2 is an RNA molecule of 200 nucleotides in total length that has two essential regions of RNA 9A (residues 1-80) in its molecule. It was prepared by transcription reaction using T7 RNA polymerase (Epicentre) and subcloned into vector pCR®II-TOPO (Invitrogen).
Each RNA whose 5′-terminus was ^32P-labeled (0.8 pmol) was warmed in 20 μl Buffer A at 75° C. for 3 minutes and then allowed to stand at room temperature for 10 minutes or longer to form the secondary structure of RNA. […] Each aliquot was supplemented with 5 μl Raf-1 GST-RBD solution (containing, in addition to RBD, 160 μg/ml BSA, 1 mM DTT and 10% glycerol in Buffer A), incubated at 37° C. for 30 minutes, and then analyzed by electrophoresis on a 5% non-denaturing polyacrylamide gel (acrylamide:bisacrylamide=39:1). […]
A general note: Mobility shift assays separate free from complexed probe on a gel.

Data set [7] in a line: Filter binding % (filter binding method, Table 2). The note with it: triplicate average, standard deviation in parentheses. As to the method:
as §1

Chain of T7 RNA polymerase (P00573 whole entry): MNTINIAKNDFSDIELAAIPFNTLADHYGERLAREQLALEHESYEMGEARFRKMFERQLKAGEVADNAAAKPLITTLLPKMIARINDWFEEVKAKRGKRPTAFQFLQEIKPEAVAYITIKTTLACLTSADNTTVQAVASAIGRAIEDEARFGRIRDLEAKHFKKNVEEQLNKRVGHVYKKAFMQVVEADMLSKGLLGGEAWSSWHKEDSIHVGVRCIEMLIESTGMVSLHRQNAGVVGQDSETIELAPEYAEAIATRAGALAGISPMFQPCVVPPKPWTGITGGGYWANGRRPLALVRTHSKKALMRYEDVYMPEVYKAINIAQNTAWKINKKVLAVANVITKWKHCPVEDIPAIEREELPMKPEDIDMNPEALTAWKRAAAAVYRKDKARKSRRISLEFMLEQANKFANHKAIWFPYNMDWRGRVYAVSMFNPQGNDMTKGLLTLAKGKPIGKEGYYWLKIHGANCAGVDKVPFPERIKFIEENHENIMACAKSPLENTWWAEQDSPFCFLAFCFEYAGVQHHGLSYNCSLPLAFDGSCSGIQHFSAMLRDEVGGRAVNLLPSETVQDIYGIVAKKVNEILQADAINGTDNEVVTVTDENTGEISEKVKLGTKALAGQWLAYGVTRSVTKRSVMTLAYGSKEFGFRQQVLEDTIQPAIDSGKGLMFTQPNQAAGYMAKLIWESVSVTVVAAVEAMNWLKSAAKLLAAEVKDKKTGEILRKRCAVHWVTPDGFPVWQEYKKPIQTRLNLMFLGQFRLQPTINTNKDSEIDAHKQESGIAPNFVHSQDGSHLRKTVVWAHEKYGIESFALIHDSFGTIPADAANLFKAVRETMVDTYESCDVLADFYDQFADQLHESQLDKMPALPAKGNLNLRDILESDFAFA
Chain of B-Raf RBD/Ras interaction (P15056 149-226): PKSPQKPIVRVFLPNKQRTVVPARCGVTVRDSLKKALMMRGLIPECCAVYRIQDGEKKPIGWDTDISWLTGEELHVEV

B1: RNA 9A: anti-(Raf-1) RNA aptamer binding to Raf-1 RBD, 100 bases, SEQ ID NO: 1 (nucleic acid)
chain: GGGAGUGGAGGAAUUCAUCGAGGCAUAUGUCGACUCCGUCUUCCUUCAAACCAGUUAUAAAUUGGUUUUAGCAUAUGCCUUAGCGACAGCAAGCUUCUGC
modifications: chemistry not given here
Turning to B1, in data set [1] ([α-32P]ATP label), the misincorporation came to 0.45% and the “5Iyp (number of nucleotides in transcription product)” value was 0.10(0). For the same molecule, in data set [1] ([α-32P]GTP label), the misincorporation came to 0.41% and the “5Iyp (number of nucleotides in transcription product)” value is 0.09(0). The “inhibitory capacity against Raf-1 RBD/Ras interaction” value in data set [2] is given as “higher inhibitory capacity”. For the same molecule, in data set [3], the “Raf-1 RBD binding %” value is listed as 25 (5) %. The “inhibition of B-Raf RBD/Ras interaction” value in data set [4] is on record as “did not inhibit”. Besides, the “inhibition of Ras-induced Raf-1 activation” value in data set [5] is “strongly inhibited”. Also, the “complex formation with GST-RBD (gel shift pattern)” value in data set [6] is on record as 1:1 complex. The Filter binding % in data set [7] is 0.2 (0.1) %.

(Values after US7745417B2, “Nucleosides or nucleotides having novel unnatural bases and use thereof” (RIKEN, priority 2002, dated 2010).)
